T1: CD22 protein expressed on the surface of Daudi cells (human, UniProt P20273 20-847)
T1 construct: whole, on cells; also called human CD22; cell surface CD22
T1 sequence (looked up): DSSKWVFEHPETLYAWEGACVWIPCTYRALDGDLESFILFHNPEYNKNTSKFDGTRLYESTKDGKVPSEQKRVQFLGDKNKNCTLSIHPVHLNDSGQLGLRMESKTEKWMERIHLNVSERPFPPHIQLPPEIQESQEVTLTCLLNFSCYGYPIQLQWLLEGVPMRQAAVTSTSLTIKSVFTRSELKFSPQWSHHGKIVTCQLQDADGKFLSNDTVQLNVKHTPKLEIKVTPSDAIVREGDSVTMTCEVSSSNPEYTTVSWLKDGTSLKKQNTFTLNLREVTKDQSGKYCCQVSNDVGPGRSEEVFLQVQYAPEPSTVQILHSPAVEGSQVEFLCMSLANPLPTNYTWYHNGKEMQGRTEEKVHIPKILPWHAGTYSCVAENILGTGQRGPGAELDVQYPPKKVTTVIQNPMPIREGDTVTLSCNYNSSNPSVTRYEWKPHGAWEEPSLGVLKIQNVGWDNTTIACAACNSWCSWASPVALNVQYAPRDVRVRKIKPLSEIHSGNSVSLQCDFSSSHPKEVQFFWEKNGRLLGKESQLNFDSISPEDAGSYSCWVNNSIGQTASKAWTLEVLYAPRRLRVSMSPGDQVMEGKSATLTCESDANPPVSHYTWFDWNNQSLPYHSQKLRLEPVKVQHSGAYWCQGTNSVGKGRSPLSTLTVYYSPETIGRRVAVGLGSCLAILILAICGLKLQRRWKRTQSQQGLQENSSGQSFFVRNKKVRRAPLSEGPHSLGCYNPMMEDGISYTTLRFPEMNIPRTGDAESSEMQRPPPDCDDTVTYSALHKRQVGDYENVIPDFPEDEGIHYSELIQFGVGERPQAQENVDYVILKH


Legend:
[1] = molecular target: T1, CD22 protein expressed on the surface …; experiment: confocal immunofluorescence, FITC-labelled antibody on Daudi cells
Procedure: Selected antiCD22 selected anti-CD22 Mab clones VM1000, VM1001, VM1002, VM1003, VM1004, VM1005, VM1006, VM1007, VM1008, VM1009, VM1010, VM1011, VM1012, VM1013, VM1014, and VM1015 of the invention were directly conjugated to F1TC using the Zenon labeling complex (Molecular Probes) using the manufacturer's recommended procedures. Approximately 1×10e7 Daudi cells were resuspended in PBS containing 5 ug/ml labeled anti-CD22 antibody and incubated for 45 minutes on ice. Cells then washed twice in PBS-FBS solution at 0 C. Cells were then incubated in RPMI 1640 media containing 10% FBS for varying periods at 37 C, harvested and washed in PBS at 0 C. The cells were then briefly fixed in 4% paraformaldehyde solution for 5 min at room temperature, then washed in PBS containing 0.05% Triton X-100. Cell pellets were collected by centrifugation and resupended in a minimal volume of FBS neat, and then applied to glass microscope slides. Prior to analysis, slides were treated with mounting fluid containing the nuclear stain DAPI, then coverslips were applied. Confocal images were recorded using an ACAS Ultima confocal microscope (Meridian Instruments, Inc., Okemos, Mich.) and represent 1-μm sections through the center of a focal plane using a 100× oil immersion objective.
The Anti-CD22 monoclonal antibodies selected clones VM1000, VM1001, VM1002, VM1003, VM1004, VM1005, VM1006, VM1007, VM1008, VM1009, VM1010, VM1011, VM1012, VM1013, VM1014, and VM1015 of the invention were analysed for their ability to be rapidly internalized into the intracellular compartment as judged by immunoflourescent signal on the cell surface versus the intracellular endo cytotic compartment. The antibodies of the invention were compared to BA006H, and humanized version of the murine monoclonal antibody LL2. In this example, FIG. 21A, the anti-CD22 antibodies of the invention bind to CD22 protein expressed on the surface of Daudi cells by approximately 20-fold compared to BA006H as judged by relative mean fluorescence (RMF), and are virtually completely internalized within the cell with 90 minutes, localizing predominantly to within the perinuclear golgi apparatus and associated lysozomes. Shown in FIG. 21B is a chart of the RMF surface binding values obtained in this manner for individual anti-CD22 antibodies of the invention.

[2] = molecular target: T2, recombinant CD22 extracellular domain; experiment: ELISA on plates coated with recombinant CD22 extracellular domain (coating 2, 0.2, 0.02 or 0.002 ug/ml per paragraph 227; the sheet does not say which), anti-human IgG-HRP, read at 450 nm
T2 construct: Kept apart from m18, which is cell-surface CD22; also called CD22 (analyte in the BIAcore runs); CD22 ECD
Procedure: Nunc-Immuno MaxiSorp 96 well plates were coated with 100 μl of 2 μg/ml, 0.2 μg/ml, 0.02 μg/ml or 0.002 μg/ml recombinant CD22 extracellular domain (PeproTech, Inc. catalog number 100-01 in coating solution (sodium bicarbonate in PBS). The plates were covered with plate sealer and incubated at 4° C. overnight. Plates were emptied and the residual liquid tapped out on paper towels. 200 μl washing solution (0.05% Tween-20 in PBS) was added and shaken at 200 RPM for 5 min at room temperature. The plates were emptied and residual liquid tapped out on paper towels. 200 μl blocking solution (2% Carnation milk in PBS) was added and shaken at 200 RPM for one hour at room temperature. Plates were emptied and residual liquid tapped out on paper towels. 100 μl of diluted samples containing VM1000, VM1001, VM1002, VM1003, VM1004, VM1005, VM1006, VM1007, VM1008, VM1009, VM1010, VM1011, VM1012, VM1013, VM1014, and VM1015 antibodies for ELISA were used. The samples were shaken at 200 RPM for one hour at room temperature; plates emptied and residual liquid tapped out on paper towels. 200 μl washing solution (0.05% Tween-20 in PBS) was added, shaken at 200 RPM for 5 min at room temperature; plates emptied and residual liquid tapped out on paper towels. This process was repeated three times. 100 μl of 1:2500 dilution of anti-human IgG conjugated with HRP diluted in block solution (2% Carnation milk in PBS) was added for all samples. 100 μl of 1:2500 dilution of anti-rabbit IgG conjugated with HRP diluted in block solution (2% Carnation milk in PBS) was added for control antibody. The contents were shaken at 200 RPM for one hour at room temperature, plates emptied and residue liquid tapped out on paper towels. 200 μl washing solution (0.05% Tween-20 in PBS) was added, shaken at 200 RPM for 5 min at room temperature; plates emptied and residual liquid tapped out on paper towels. This process was repeated three times. 100 μl TMB substrate solution was added, and incubated at room temperature. The reaction was stopped with 1 N HCl, and the plate read at 450 nm to determine relative binding affinity (FIG. 17).

[3] = molecular target: T1, CD22 protein expressed on the surface …; experiment: cell-based or functional assay

fold surface binding by relative mean fluorescence (RMF) compared to BA006H [1] [fold] | ELISA OD 450 [2] | Daudi Internalization by FACS, % Shift [3] [%] | Binder
~20 | 0.67 | 69.4 | VM1008 (antibody, V domains shown, Humanized antibody with human constant region; also called Anti-CD22 Ab VM1008; anti-CD22 Mab clone VM1008) VH: QVQLVQSGAEVKKPGASVKVSCKASGYVFTSYWLHWVRQARGQRLEWIGYINPRNDYTEYNRIFKGRVTITADKSTSTAYMELSSLRSEDTAVYYCARRGITTFYWGQG VL: DIQMTQSPSSLSASVGDRVTITCKSSQSVLYSAVEKNYLAWYQQKPGQAPRLLIYWASTRERGIPDRFSGSGSGTDFTLTISRLEPEDFAVYYCKQYLSSWTFGQG
~20 |  | 88.8 | VM1013 (antibody, V domains shown, Humanized antibody with human constant region; also called anti-CD22 Mab clone VM1013) VH: QVQLQESGPGLVKPSQTLSLTCTVSGYVFTSYWLHWIRQPPGKGLEWIGYINPRNDYTEYNRIFKGRFTISRDNAKNSLYLQMNSLRAEDTAVYYCARRGITTFYWGQG VL: AIQLTQSPSSLSASVGDRVTITCKSSQSVLYSAVEKNYLAWYQQKPGQAPRLLIYWASTRERGVPSRFSGSGSGTDFTLTISSLQPEDFATYYCKQYLSSWTFGQG
~20 | 0.597 | 69.4 | VM1009 (antibody, V domains shown, Humanized antibody with human constant region; also called anti-CD22 Mab clone VM1009) VH: QVQLVQSGAEVKKPGASVKVSCKASGYVFTSYWLHWIRQSPSRGLEWLGYINPRNDYTEYNRIFKGRFVFSLDTSVSTAYLQICSLKAEDTAVYYCARRGITTFYWGQG VL: EIVLTQSPATLSLSPGERATLSCKSSQSVLYSAVEKNYLAWYQQKPGKAPKLLIYWASTRERGVPSRFSGSGSGTDFTFTISSLEAEDAATYYCKQYLSSWTFGQG
~20 | 0.7 | 65.7 | VM1010 (antibody, V domains shown, Humanized antibody with human constant region; also called anti-CD22 Mab clone VM1010) VH: EVQLVQSGAEVKKPGESLRISCKVSGYVFTSYWLHWIRQSPSRGLEWLGYINPRNDYTEYNRIFKGRFTISRDNAKNSLYLQMNSLRAEDTAVYYCARRGITTFYWGQG VL: EIVLTQSPATLSLSPGERATLSCKSSQSVLYSAVEKNYLAWYQQKPGKAPKLLIYWASTRERGVPSRFSGSGSGTDFTFTISSLQPEDIATYYCKQYLSSWTFGQG
~20 | 0.372 | 86.4 | VM1005 (antibody, V domains shown, Humanized antibody with human constant region; also called anti-CD22 Mab clone VM1005) VH: EVQLVQSGAEVKKPGATVKISCKVSGYVFTSYWLHWIRQSPSRGLEWLGYINPRNDYTEYNRIFKGRFVFSLDTSVSTAYLQICSLKAEDTAVYYCARRGITTFYWGQG VL: AIQLTQSPSSLSASVGDRVTITCKSSQSVLYSAVEKNYLAWYQQKPGQAPRLLIYWASTRERGVPSRFSGSGSGTDFTLTISSLQPEDFATYYCKQYLSSWTFGQG
~20 |  | 87.5 | VM1012 (antibody, V domains shown, Humanized antibody with human constant region; also called anti-CD22 Mab clone VM1012) VH: QVQLVQSGAEVKKPGASVKVSCKASGYVFTSYWLHWVRQAPGQGLEWMGYINPRNDYTEYNRIFKGRFTISRDNAKNSLYLQMNSLRAEDTAVYYCARRGITTFYWGQG VL: EIVLTQSPATLSVSPGERATLSCKSSQSVLYSAVEKNYLAWYQQKPGQAPRLLIYWASTRERGVPSRFSGSGSGTDFTFTISSLQPEDIATYYCKQYLSSWTFGQG

From patent publication US20150086562A1 (BIOATLA, published 2015)
